Values quoted from earlier work in publication PMC4454452.

Tests used:
[1] = target: Histone H3 peptide (H3K9me3) (Homo sapiens) (UniProt P68431)
[2] = target: Histone H3 peptide (H3K9me0) (Homo sapiens) (UniProt P68431)

Chain of CHD4 PHD2 (Q14839 449-496): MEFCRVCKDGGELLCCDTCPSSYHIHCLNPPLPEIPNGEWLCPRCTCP

Kd [1]: 0.9 µM | Kd [2]: 19 µM
Substance: CHD4 PHD2 (from UniProt Q14839)
